Assay results taken from paper doi:10.1101/244665 (bioRxiv, 2019).

Biological target: the molecule itself
Test: SEC

B1: PfA-M17(Δ388–389) (enzyme, Plasmodium falciparum, UniProt Q8IL11 85-605, looked up)
chain: ASEVPQVVSLDPTSIPIEYNTPIHDIKVQVYDIKGGCNVEEGLTIFLVNNPGKENGPVKISSKVNDKNVSEFLKDENMEKFNVKLGTSKHFYMFNDNKNSVAVGYVGCGSVADLSEADMKRVVLSLVTMLHDNKLSKLTVVFEINVDKNLFRFFLETLFYEYMTDERFKSTDKNVNMEYIKHLGVYINNADTYKEEVEKARVYYFGTYYASQLIAAPSNYCNPVSLSNAAVELAQKLNLEYKILGVKELEELKMGAYLSVGKGSMYPNKFIHLTYKSKGDVKKKIALVGKGITFDSGGYNLKAGSMIDLMKFDMSGCAAVLGCAYCVGTLKPENVEIHFLSAVCENMVSKNSYRPGDIITASNGKTIEVGNTDAEGRLTLADALVYAEKLGVDYIVDIATLTGAMLYSLGTSYAGVFGNNEELINKILNSSKTSNEPVWWLPIINEYRATLNSKYADINNISSSVKASSIVASLFLKEFVQNTAWAHIDIAGVSWNFKARKPKGFGVRLLTEFVLNDAL
stoichiometry N: 6

B2: Plasmodium falciparum M17 aminopeptidase (PfA-M17), wild type, truncated (amino acids 85-605) (enzyme, UniProt Q8IL11 85-605, looked up)
chain: ASEVPQVVSLDPTSIPIEYNTPIHDIKVQVYDIKGGCNVEEGLTIFLVNNPGKENGPVKISSKVNDKNVSEFLKDENMEKFNVKLGTSKHFYMFNDNKNSVAVGYVGCGSVADLSEADMKRVVLSLVTMLHDNKLSKLTVVFEINVDKNLFRFFLETLFYEYMTDERFKSTDKNVNMEYIKHLGVYINNADTYKEEVEKARVYYFGTYYASQLIAAPSNYCNPVSLSNAAVELAQKLNLEYKILGVKELEELKMGAYLSVGKGSMYPNKFIHLTYKSKGDVKKKIALVGKGITFDSGGYNLKAAPGSMIDLMKFDMSGCAAVLGCAYCVGTLKPENVEIHFLSAVCENMVSKNSYRPGDIITASNGKTIEVGNTDAEGRLTLADALVYAEKLGVDYIVDIATLTGAMLYSLGTSYAGVFGNNEELINKILNSSKTSNEPVWWLPIINEYRATLNSKYADINNISSSVKASSIVASLFLKEFVQNTAWAHIDIAGVSWNFKARKPKGFGVRLLTEFVLNDAL
stoichiometry N: 6

B3: PfA-M17(A387P) (enzyme, Plasmodium falciparum, UniProt Q8IL11 85-605, looked up)
chain: ASEVPQVVSLDPTSIPIEYNTPIHDIKVQVYDIKGGCNVEEGLTIFLVNNPGKENGPVKISSKVNDKNVSEFLKDENMEKFNVKLGTSKHFYMFNDNKNSVAVGYVGCGSVADLSEADMKRVVLSLVTMLHDNKLSKLTVVFEINVDKNLFRFFLETLFYEYMTDERFKSTDKNVNMEYIKHLGVYINNADTYKEEVEKARVYYFGTYYASQLIAAPSNYCNPVSLSNAAVELAQKLNLEYKILGVKELEELKMGAYLSVGKGSMYPNKFIHLTYKSKGDVKKKIALVGKGITFDSGGYNLKPAPGSMIDLMKFDMSGCAAVLGCAYCVGTLKPENVEIHFLSAVCENMVSKNSYRPGDIITASNGKTIEVGNTDAEGRLTLADALVYAEKLGVDYIVDIATLTGAMLYSLGTSYAGVFGNNEELINKILNSSKTSNEPVWWLPIINEYRATLNSKYADINNISSSVKASSIVASLFLKEFVQNTAWAHIDIAGVSWNFKARKPKGFGVRLLTEFVLNDAL
stoichiometry N: 6

B4: PfA-M17(Δ388–390) (enzyme, Plasmodium falciparum, UniProt Q8IL11 85-605, looked up)
chain: ASEVPQVVSLDPTSIPIEYNTPIHDIKVQVYDIKGGCNVEEGLTIFLVNNPGKENGPVKISSKVNDKNVSEFLKDENMEKFNVKLGTSKHFYMFNDNKNSVAVGYVGCGSVADLSEADMKRVVLSLVTMLHDNKLSKLTVVFEINVDKNLFRFFLETLFYEYMTDERFKSTDKNVNMEYIKHLGVYINNADTYKEEVEKARVYYFGTYYASQLIAAPSNYCNPVSLSNAAVELAQKLNLEYKILGVKELEELKMGAYLSVGKGSMYPNKFIHLTYKSKGDVKKKIALVGKGITFDSGGYNLKASMIDLMKFDMSGCAAVLGCAYCVGTLKPENVEIHFLSAVCENMVSKNSYRPGDIITASNGKTIEVGNTDAEGRLTLADALVYAEKLGVDYIVDIATLTGAMLYSLGTSYAGVFGNNEELINKILNSSKTSNEPVWWLPIINEYRATLNSKYADINNISSSVKASSIVASLFLKEFVQNTAWAHIDIAGVSWNFKARKPKGFGVRLLTEFVLNDAL
stoichiometry N: 6
